Assay results published in patent publication US20220411487A1 (Regeneron, published 2022).

T1: mfTMPRSS6_S751A-MMH (Macaca fascicularis, UniProt Q8IU80 77-811 (human entry))
T1 construct: also called REGN5977; Macaca fascicularis TMPRSS6 extracellular domain with a S751A mutation and a C-terminal myc-myc-hexahistidine tag
T1 chain: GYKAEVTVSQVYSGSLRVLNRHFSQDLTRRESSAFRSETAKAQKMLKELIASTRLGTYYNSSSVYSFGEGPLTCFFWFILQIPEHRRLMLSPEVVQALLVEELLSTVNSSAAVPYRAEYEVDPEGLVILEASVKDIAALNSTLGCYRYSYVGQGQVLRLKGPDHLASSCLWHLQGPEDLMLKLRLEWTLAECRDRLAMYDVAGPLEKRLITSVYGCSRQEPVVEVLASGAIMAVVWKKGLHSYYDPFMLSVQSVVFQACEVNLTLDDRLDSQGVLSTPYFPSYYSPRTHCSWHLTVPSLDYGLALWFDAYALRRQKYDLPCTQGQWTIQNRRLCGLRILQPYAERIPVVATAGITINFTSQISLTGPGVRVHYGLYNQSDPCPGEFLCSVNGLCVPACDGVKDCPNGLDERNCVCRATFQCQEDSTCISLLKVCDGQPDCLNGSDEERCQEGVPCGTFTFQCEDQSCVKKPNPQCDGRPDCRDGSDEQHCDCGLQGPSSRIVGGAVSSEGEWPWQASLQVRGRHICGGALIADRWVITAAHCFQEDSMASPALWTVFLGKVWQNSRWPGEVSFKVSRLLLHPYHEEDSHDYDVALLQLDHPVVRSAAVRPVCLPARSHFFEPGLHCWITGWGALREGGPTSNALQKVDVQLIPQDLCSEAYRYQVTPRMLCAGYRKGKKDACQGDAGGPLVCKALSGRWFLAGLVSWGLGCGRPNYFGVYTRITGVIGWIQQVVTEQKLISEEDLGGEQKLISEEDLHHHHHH

T2: full length mouse TMPRSS6 on HEK293 cells (HEK293/mTMPRSS6) (mouse, UniProt Q9DBI0 1-811)
T2 sequence: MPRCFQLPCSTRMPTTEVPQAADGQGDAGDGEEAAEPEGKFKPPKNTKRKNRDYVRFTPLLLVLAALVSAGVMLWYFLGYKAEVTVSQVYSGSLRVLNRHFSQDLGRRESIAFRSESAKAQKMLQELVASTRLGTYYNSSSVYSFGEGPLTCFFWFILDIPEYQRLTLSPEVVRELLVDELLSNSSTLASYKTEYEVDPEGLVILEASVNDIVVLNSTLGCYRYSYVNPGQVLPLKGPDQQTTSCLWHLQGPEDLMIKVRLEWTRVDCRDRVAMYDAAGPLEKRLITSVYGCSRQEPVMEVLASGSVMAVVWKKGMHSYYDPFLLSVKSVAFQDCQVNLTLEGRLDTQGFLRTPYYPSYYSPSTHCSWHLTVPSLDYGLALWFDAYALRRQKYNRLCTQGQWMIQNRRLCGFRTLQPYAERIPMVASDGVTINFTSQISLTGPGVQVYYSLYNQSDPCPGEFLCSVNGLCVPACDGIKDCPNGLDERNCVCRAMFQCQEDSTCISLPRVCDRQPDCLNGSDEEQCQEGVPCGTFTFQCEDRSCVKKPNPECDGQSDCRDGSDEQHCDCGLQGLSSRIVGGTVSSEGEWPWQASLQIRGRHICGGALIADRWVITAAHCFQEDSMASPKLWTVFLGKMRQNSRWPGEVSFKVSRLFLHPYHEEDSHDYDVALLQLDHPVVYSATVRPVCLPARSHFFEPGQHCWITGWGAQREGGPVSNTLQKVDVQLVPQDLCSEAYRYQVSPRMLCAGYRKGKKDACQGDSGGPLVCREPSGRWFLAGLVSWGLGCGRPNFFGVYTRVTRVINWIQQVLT


What was measured:
mfTMPRSS6_S751A-MMH = target: T1, mfTMPRSS6_S751A-MMH; test: SPR, mAb captured via anti-hFc, 37 C
Protocol: (§1) The equilibrium dissociation constant (KD) for TMPRSS6 binding to different TMPRSS6 monoclonal antibodies (mAbs) was determined using a real-time surface plasmon resonance biosensor using a Biacore 4000 instrument. All binding studies were performed in 10 mM HEPES, 150 mM NaCl, 3 mM EDTA, and 0.05% v/v Surfactant Tween-20, pH 7.4 (HBS-ET) running buffer at 25° C. and 37° C. The Biacore CM5 sensor chip surface was first derivatized by amine coupling with a human Fc specific mouse mAb to capture different TMPRSS6 mAbs. […] Different concentrations (100 nM to 3.7 nM, 3-fold serial dilution) of the TMPRSS6 reagent proteins prepared in HBS-EP running buffer were injected over the TMPRSS6 mAb captured surface for 150 seconds at a flow rate of 30 μL/min and their dissociation in HBS-ET running buffer was monitored for 10 minutes. At the end of each cycle, the TMPRSS6 mAb captured surface was regenerated using a 12 second injection of 20 mM phosphoric acid.
(§2) The association rate (kₐ) and dissociation rate (kd) were determined by fitting the real-time binding sensorgrams to a 1:1 binding model with mass transport limitation using Scrubber 2.0 (BioLogic Software) curve-fitting software. Binding dissociation equilibrium constant (KD) and dissociative half-life (t½) were calculated from the kinetic rates as: […]

hTMPRSS6_S762A-MMH = target: T3, hTMPRSS6_S762A-MMH (human, UniProt Q8IU80 77-811); test: SPR, mAb captured via anti-hFc, 37 C
T3 construct: also called REGN5330; human TMPRSS6_S762A-MMH
Protocol: as §1, §2

mTMPRSS6_S762A-MMH [1] = target: T4, mTMPRSS6_S762A-MMH (mouse, UniProt Q9DBI0 81-811); test: SPR, mAb captured via anti-hFc, 37 C
T4 construct: also called REGN6848; mouse TMPRSS6 extracellular domain with a S762A mutation and a C-terminal myc-myc-hexahistidine tag
Protocol: as §1, §2

mTMPRSS6_S762A-MMH [2] = target: T4, mTMPRSS6_S762A-MMH; test: SPR, mAb captured via anti-hFc, 25 C
Protocol: as §1, §2

[3] = target: T2, full length mouse TMPRSS6 on HEK293 …; test: cell-based or functional assay
[4] = target: T2, full length mouse TMPRSS6 on HEK293 …; test: cell-based or functional assay; remark: listed apart in the source
[5] = target: T2, full length mouse TMPRSS6 on HEK293 …; test: flow cytometry, HEK293/mTMPRSS6 cells

T4 sequence (Q9DBI0 other isoform, or with tags, fused parts or gaps S762A S762A): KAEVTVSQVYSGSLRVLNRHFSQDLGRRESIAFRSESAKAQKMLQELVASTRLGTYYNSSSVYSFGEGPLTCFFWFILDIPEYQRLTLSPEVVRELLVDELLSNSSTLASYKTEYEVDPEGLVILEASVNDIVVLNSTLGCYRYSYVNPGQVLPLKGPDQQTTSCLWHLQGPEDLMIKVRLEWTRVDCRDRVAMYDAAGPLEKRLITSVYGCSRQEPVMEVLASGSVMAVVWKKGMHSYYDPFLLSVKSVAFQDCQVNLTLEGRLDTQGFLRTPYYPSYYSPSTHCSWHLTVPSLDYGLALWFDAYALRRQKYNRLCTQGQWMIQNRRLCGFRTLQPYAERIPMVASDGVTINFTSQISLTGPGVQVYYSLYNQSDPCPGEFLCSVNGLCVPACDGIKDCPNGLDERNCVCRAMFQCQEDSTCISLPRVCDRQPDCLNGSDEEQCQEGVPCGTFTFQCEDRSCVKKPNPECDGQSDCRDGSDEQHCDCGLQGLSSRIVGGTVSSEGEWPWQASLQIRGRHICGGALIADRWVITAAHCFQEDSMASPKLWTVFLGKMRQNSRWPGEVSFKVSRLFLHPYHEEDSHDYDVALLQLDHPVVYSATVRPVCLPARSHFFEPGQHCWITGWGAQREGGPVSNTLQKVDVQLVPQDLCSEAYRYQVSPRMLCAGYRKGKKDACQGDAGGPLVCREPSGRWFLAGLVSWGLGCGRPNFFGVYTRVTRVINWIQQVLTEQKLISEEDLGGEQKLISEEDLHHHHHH

| Binder | 100 nM Ag Bound (mfTMPRSS6_S751A-MMH) [RU] | Kd (mfTMPRSS6_S751A-MMH) [nM] | koff (mfTMPRSS6_S751A-MMH) [s⁻¹] | kon (mfTMPRSS6_S751A-MMH) [M⁻¹ s⁻¹] | t½ (mfTMPRSS6_S751A-MMH) [min] | 100 nM Ag Bound (hTMPRSS6_S762A-MMH) [RU] | Kd (hTMPRSS6_S762A-MMH) [nM] | koff (hTMPRSS6_S762A-MMH) [s⁻¹] | kon (hTMPRSS6_S762A-MMH) [M⁻¹ s⁻¹] | t½ (hTMPRSS6_S762A-MMH) [min] | 100 nM Ag Bound (mTMPRSS6_S762A-MMH [1]) [RU] | Kd (mTMPRSS6_S762A-MMH [1]) [nM] | koff (mTMPRSS6_S762A-MMH [1]) [s⁻¹] | kon (mTMPRSS6_S762A-MMH [1]) [M⁻¹ s⁻¹] | t½ (mTMPRSS6_S762A-MMH [1]) [min] | 100 nM Ag Bound (mTMPRSS6_S762A-MMH [2]) [RU] | Kd (mTMPRSS6_S762A-MMH [2]) [nM] | koff (mTMPRSS6_S762A-MMH [2]) [s⁻¹] | kon (mTMPRSS6_S762A-MMH [2]) [M⁻¹ s⁻¹] | t½ (mTMPRSS6_S762A-MMH [2]) [min] | also measured |
| --- | --- | --- | --- | --- | --- | --- | --- | --- | --- | --- | --- | --- | --- | --- | --- | --- | --- | --- | --- | --- | --- |
| REGN7977 (antibody, V domains shown, fully human; human IgG4 Fc with hinge S108P; also called mAb41465) VH: EVQLVESGGGLVKPGGSLRVSCAASGVTFSNVWMSWVRQVPGKGLEWVGRIKSKTDGGTTDYAAPVKGRFTISKDDSKNTLFLQMNSLKTEDTAVYYCTTETGDFWSGYYPRFQHWGQGTLVTVSS VL: DIQMTQSPSSLSASVGDRVTITCRASQYISTYLNWYQQKPGKAPSLLIYAASSLQSGVPSRFSGSGSGTDFTLTISSLQPEDFASYSCQQSYSTPPYTFGQGTKLEIKR | 133 | 11.9 | 0.00247 | 207000 | 4.7 | 134 | 11 | 0.00124 | 113000 | 9 | 9 | 703 | 0.227 | 323000 | 0.05 | 20 | 233 | 0.067 | 288000 | 0.17 | % inhibition, HEK293 bioassay, 30 min pre-incubation 25 C [3]: 58%; IC50, HEK293 bioassay, 30 min pre-incubation 25 C [3]: 35 nM; % inhibition, HEK293 bioassay, overnight pre-incubation 37 C [4]: 97%; IC50, HEK293 bioassay, overnight pre-incubation 37 C [4]: 14 nM |
| REGN7999 (antibody, human IgG4 S228P, kappa, V domains shown, fully human; human IgG4 Fc with hinge S108P; also called mAb41450) VH: EVQLVESGGGLVQPGGSLRLSCAASGFTFSSYAMTWVRQAPGKGLEWVSAISGSDTSTYYADSVKGRFTISRDNSKNTLFLQMNSLRAEDTAVYYCAKHQDYDFSYYYSAMDVWGQGTTVTVSS VL: DIQMTQSPSSLSASVGDRVIITCRASQDFNSWLAWYQQKPGKAPKLLIYAASSLQSGVPSRFSGSGSGTDFTLTISSLQPEDFATYYCQQTDSFPFTFGPGTKVDIKR | 143 | 0.75 | 0.000306 | 408000 | 38 | 129 | 2.3 | 0.000354 | 154000 | 33 | 130 | 0.317 | 0.00016 | 505000 | 72 | 178 | 0.0829 | 3.45e-05 | 416000 | 334 | % inhibition, HEK293 bioassay, 30 min pre-incubation 25 C [3]: 88%; IC50, HEK293 bioassay, 30 min pre-incubation 25 C [3]: 3.6 nM; % inhibition, HEK293 bioassay, overnight pre-incubation 37 C [4]: 103%; IC50, HEK293 bioassay, overnight pre-incubation 37 C [4]: 2.1 nM |
| REGN7974 (antibody, human IgG4 S228P, kappa, V domains shown, fully human; human IgG4 Fc with hinge S108P; also called mAb41422) VH: EVQLVESGGGLVQPGRSLRLSCIASGFNFGDYGMSWVRQAPGKGLEWVGFIRSKAYGGTTEYAASVKGRFTISRDDSKSIAYLQMNSLKTEDAAMYYCSRDYYDILTGYYGDYWGQGTLVTVSS VL: not shown | 183 | 16.1 | 0.00405 | 251000 | 2.9 | 206 | 21.2 | 0.00235 | 111000 | 4.9 | 3 | – | – | – | – | 3 | – | – | – | – | binding result [5]: no binding (tested: 375 nM); binding result (mTMPRSS6_S762A-MMH [2]): no binding (tested: 100 nM) |
| REGN7969 (antibody, human IgG4 S228P, kappa, V domains shown, fully human; human IgG4 Fc with hinge S108P; also called mAb37746) VH: QVQLVESGGGVVQPGRSLRLSCAASGFTFNNYGMHWVRQAPGKGLEWVAIISYDGSNEYYSDSVKGRFTISRDNSKNTLYLQMNSLRAEDTAVYYCARDQDYGGNLFHYWGQGTLVTVSS VL: not shown | 105 | 3.27 | 0.000924 | 283000 | 12 | 110 | 4.4 | 0.000975 | 222000 | 12 | 2 | – | – | – | – | 4 | – | – | – | – | binding result [5]: no binding (tested: 375 nM); binding result (mTMPRSS6_S762A-MMH [2]): no binding (tested: 100 nM) |
| REGN7971 (antibody, human IgG4 S228P, kappa, V domains shown, fully human; human IgG4 Fc with hinge S108P; also called mAb37763) VH: QVQLVESGGGVVQPGRSLRLSCAASGFTFSTYGMHWVRQAPGKGLEWVAIISYDGSNDYYLDSVKGRFTISRDNSKNTLYLQMNNLRAEDTAVYYCAKDQGYGGNLFASWGQGTLVTVSS VL: not shown | 160 | 1.68 | 0.00061 | 363000 | 19 | 169 | 2.44 | 0.000637 | 261000 | 18 | – | – | – | – | – | – | – | – | – | – | binding result [5]: no binding (tested: 375 nM) |
| REGN8023 (antibody, human IgG4 S228P, kappa, V domains shown, fully human; human IgG4 Fc with hinge S108P; also called mAb37699) VH: EVQLVESGGGLVKPGGSLRISCAASGFIFVDYAMHWVRQAPGKGLEWVSGISWNSGSIGYADSVKGRFTISRDNAKKSLYLQMSGLRPEDTALYYCVKSGFYYVRSYFDNWGQGTLVTVSS VL: DIVMTQSPLSLPVTPGEPASISCRSSQSLLDSDDGNTYLDWYLRKPGQSPQLLIYTLSYRASGVPDRFSGSGSGTDFTLKISRVEADDVGVYYCMQRIEFPLTFGGGTKVEIKR | 206 | 1 | 0.000634 | 632000 | 18 | 205 | 2.24 | 0.000935 | 418000 | 12 | 189 | 24.7 | 0.00666 | 269000 | 1.7 | 209 | 1.84 | 0.0011 | 599000 | 10 | % inhibition, HEK293 bioassay, 30 min pre-incubation 25 C [3]: 82%; IC50, HEK293 bioassay, 30 min pre-incubation 25 C [3]: 1.5 nM; % inhibition, HEK293 bioassay, overnight pre-incubation 37 C [4]: 98%; IC50, HEK293 bioassay, overnight pre-incubation 37 C [4]: 1.2 nM |
